{
  "source": "patent US20240261333A1",
  "about": "(published 2024)",
  "binders": {"B1": {"name": "N-terminal FLAG tagged B3GNT2 (enzyme, human, UniProt Q9NY97 1-397, looked up)", "chain": "MSVGRRRIKLLGILMMANVFIYFIMEVSKSSSQEKNGKGEVIIPKEKFWKISTPPEAYWNREQEKLNRQYNPILSMLTNQTGEAGRLSNISHLNYCEPDLRVTSVVTGFNNLPDRFKDFLLYLRCRNYSLLIDQPDKCAKKPFLLLAIKSLTPHFARRQAIRESWGQESNAGNQTVVRVFLLGQTPPEDNHPDLSDMLKFESEKHQDILMWNYRDTFFNLSLKEVLFLRWVSTSCPDTEFVFKGDDDVFVNTHHILNYLNSLSKTKAKDLFIGDVIHNAGPHRDKKLKYYIPEVVYSGLYPPYAGGGGFLYSGHLALRLYHITDQVHLYPIDDVYTGMCLQKLGLVPEKHKGFRTFDIEEKNKNNICSYVDLMLVHSRKPQEMIDIWSQLQSAHLKC", "notes": "Bait of the co-IP; pulled down with mouse anti-FLAG (Millipore Sigma F3165) from cell lysate; also called N-FLAG B3GNT2; N-term FLAG; not shown: N-terminal FLAG tag"}},
  "experiment_in_all_cases": "co-IP with anti-FLAG, mass spectrometry; lysate of cells with N-FLAG B3GNT2",
  "key": {"[1]": {"target": "T1, NPM1 (human, UniProt P06748 1-294)", "T1 construct": "also called NP_001341935.1 (+1)", "T1 sequence (P06748 whole entry)": "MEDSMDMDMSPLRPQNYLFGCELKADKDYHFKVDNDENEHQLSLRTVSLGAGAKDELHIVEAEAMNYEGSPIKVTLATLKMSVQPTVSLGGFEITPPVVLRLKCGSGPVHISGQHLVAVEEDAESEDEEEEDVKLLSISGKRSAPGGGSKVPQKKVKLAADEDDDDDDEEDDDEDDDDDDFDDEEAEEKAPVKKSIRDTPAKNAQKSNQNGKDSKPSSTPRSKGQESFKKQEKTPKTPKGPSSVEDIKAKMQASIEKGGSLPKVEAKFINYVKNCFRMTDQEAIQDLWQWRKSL"}, "[2]": {"target": "RPL9 (human, UniProt P32969 1-192)"}, "[3]": {"target": "T2, SDF4 (human, UniProt Q9BRK5 37-362)", "T2 construct": "also called NP_057260.2 (+2)", "T2 sequence (looked up)": "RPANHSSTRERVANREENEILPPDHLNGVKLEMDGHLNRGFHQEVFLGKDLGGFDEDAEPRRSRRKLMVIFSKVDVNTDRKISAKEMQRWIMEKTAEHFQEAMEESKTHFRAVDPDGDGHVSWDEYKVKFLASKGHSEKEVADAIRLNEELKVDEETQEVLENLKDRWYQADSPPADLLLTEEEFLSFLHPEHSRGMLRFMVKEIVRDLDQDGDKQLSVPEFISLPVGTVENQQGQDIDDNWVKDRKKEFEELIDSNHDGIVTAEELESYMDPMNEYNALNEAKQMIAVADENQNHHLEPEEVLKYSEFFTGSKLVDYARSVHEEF"}, "[4]": {"target": "T3, GAPDH (human, UniProt P04406 2-335, limits assumed)", "T3 construct": "also called NP_001344872.1 (+1)", "T3 sequence (P04406 2-335 limits assumed)": "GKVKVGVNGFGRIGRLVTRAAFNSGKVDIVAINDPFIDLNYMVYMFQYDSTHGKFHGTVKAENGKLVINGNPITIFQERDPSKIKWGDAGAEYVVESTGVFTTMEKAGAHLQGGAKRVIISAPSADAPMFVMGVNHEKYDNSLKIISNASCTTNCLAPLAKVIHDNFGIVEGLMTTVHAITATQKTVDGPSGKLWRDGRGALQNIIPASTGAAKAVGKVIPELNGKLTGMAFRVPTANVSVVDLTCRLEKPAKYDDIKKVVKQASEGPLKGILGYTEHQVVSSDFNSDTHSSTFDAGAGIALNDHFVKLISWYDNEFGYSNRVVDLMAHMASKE"}, "[5]": {"target": "T4, PJA2 (human, UniProt O43164 2-708)", "T4 construct": "also called NP_055634.3", "T4 sequence (looked up)": "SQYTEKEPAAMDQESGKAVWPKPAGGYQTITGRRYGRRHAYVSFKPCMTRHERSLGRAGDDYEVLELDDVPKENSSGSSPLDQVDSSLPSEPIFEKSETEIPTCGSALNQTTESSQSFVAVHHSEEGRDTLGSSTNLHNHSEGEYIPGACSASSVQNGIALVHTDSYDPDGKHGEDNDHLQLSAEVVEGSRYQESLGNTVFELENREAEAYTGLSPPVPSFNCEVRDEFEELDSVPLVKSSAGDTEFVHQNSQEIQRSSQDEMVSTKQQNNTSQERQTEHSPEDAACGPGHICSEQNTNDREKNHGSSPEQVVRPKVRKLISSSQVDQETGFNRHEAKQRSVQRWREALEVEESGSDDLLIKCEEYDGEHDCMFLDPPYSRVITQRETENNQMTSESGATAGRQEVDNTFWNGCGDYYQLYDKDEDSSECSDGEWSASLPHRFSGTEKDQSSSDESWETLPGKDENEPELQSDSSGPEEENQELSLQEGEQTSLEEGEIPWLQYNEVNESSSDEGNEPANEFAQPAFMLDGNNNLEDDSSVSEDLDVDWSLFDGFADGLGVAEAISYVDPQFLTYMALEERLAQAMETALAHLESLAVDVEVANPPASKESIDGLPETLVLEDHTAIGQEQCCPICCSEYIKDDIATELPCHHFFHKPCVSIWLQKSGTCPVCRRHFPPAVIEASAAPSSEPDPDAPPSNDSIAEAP"}},
  "data": [
    {"binder": "B1", "values": [
      {"measurement": "co-IP mass spectrometry count", "setting": "[1]", "value": 0},
      {"measurement": "co-IP mass spectrometry count", "setting": "[2]", "value": 0},
      {"measurement": "co-IP mass spectrometry count", "setting": "[3]", "value": 0},
      {"measurement": "co-IP mass spectrometry count", "setting": "[4]", "value": 18},
      {"measurement": "co-IP mass spectrometry count", "setting": "[5]", "value": 0}
    ]}
  ]
}
